Measured values: a protein production outcome set (Wang et al. 2014)

Assay: label from the status in PepcDB records

Sequence | protein production
MTFSANFSLVLPEVVLAIAALVLLVAGTFRGKVGAIFTLAAVASLIAAAATAVLGPKGVAFGGVYVADAAATYAKVAIYLSSAVAVVLGDRWLAQRGDQKFEYAVLVILAALGMGVTASAGDLISLYIGVELQSLALYVLAAMRRDDAKSSEAGLKYFVLGALSSGLLLYGSSLIYGFTGSTHFSQIALAAAHGGSHGVGLLFGLVFVICGLAFKVSAAPFHMWTPDVYEGAPTPVVGFFSAAPKLAAMMMFARVLGDAFPASEEQWRQILVIAALLSVFVGAFAGLAQSNLKRLWAYSSIANVGYALLGVAAGGEVGLQSMLIFMTLYMVDVTGFFACLQALNRDGKPMETIQDMAGLVKQRPGIALAMTAFSLSALGLPPFSGFWAKYFVFKAAMGSGDVMLQWAAVIGLVGSVVAAFYYLRLIKAMWFDDAAGAVDAPSPSARAVGFAAAIFSFPIVLVALVWLEPAAKAAAAAFGHA | failed
MSYLLRREEVVDVAGLQAMLEETPGKAAQAILAAAGQGVVEAQLLLGQILLDGRGIQQDATVARRWFGIAAQGGSAMAHNMLGRCLEHGWGGEVNLVQAAVHYARAADSGLDWGLYNLGNLLATGRGVPANQVQALMCYEKAAQLGHAKSMNLYGRYLEQGIATAPSPARAVRWYRRSAEAGDFRGMFSLALVLVERGQLAEAGQWLEQARVAGNMNFLRAALVTLQDAGPVLMAFAARYAEEIDRREEAGTGEHT | failed
MTVWFVAAVAVLIIELLTGTVYLLVVSAALAGSGIAYGLTGSTPAAVLTAALLSALGIWFVHAKTAVGKVETDSYQDLDTGKYAEILRYTGGNRYEVFYRGTHWQAQNTGQEVFEPGTRALIVRKEGNLLIIANP | failed
MKHVDTEIPTEEQIHEAEKFGFHGQVQAAKIRFDRYFPGVLASITVAAAATFLSDHYGAPTMLFALLIGMAFRFLSEDESRALVGIQFASTTVLRIGVALLGMRITLGQIQSLGVKPVVMVFFSVLLTILFGLALSKMMGRGKRFGVLTGGSVGICGASAALAIAAVLPQDEYSERNTIFTVISITALSTLAMIAYPVVAQWFGLDHQAAGIFLGGTIHDVAQVVGAGYSVSEQTGDTATVIKLLRVSMLVPVVFILSLIFHKRNQKDGNAPRRTLLPPFIIFFVLFVGINSLGVVPKPATQFINDVSRWCLVTAIGALGMKTSLKSLFEVGWKPVSIMIAETVFLAVLVLGSVVWMS | failed
MPPDEIEIEPVRQSSDKMLYCEAESPPTVEKVKPARENSETDLEIEDDEKFFTTGQKELYLEACKLMGVVPVSYFIRNMEESYVNLNHHGLGPRGTKAIAIALVSNMAVTKLELEDNCIMEEGVLSLVEMLQENYYLQEMNISNNHLGLEGARIISDFFERNSSSIWSLELSGNDFKEDSAALLCQALSTNYQIKKLDLSHNQFSDVGGEHLGQMLAINVGLTSLDLSWNNFHTRGAVALCNGLRGNVTLTKLDLSMNGFGNEVALALGEVLRLNRCLVYLDIGGNDIGNEGASKISKGLESNESLRVLKLFLNPINMDGAILLILAIKRNPKSRMEELDISNVLVSEQFMKTLDGVYAVHPQLDVVFKAVQGLSPKKTIFLLTNPMKLIQSYADQHKITIVDFFKSLNPTGTMKMSVDEFQKVMIEQNKVPLNQYQVREVIKKLDEKTGMVNFSFLNTMKP | failed
MEVKVQSDDLEYVVSTVRSYINSYETDVNPLYIRFYFFESDNPLLDENFDEIRKILVPSGYIPAVIKGPENYIEVTRRPKENYRSIYVNIIMLVLTLLSTVYVGSIYAASFVRPGPYYEFYKLLYGFVFFSLPLMFILGIHETAHYLVARRYRVNASLPFFIPFPYIIGTFGAFVSLRDPIPDRKAMTEIGAAGPIAGFLASIPLMFLAQYFEKVIKPVNNVIPFQLNYPLIYKLFGIFEPVKVPVFPMVFAVWVGIFATAMNLIPAGQLDGGHIVRGLLGSRAYILNYIFLGFLFYLAIVYNYLGWLFLALFVIFLGLVHPPALNDYARIKMRDVFIGIFCLLMFIITFTPLPIKP | failed
MPAGSDWRTQPPSDYAQWNPAPRMPNQPKPLTTAHHQFAAIVQNSFDAIVSKDVEGNVQSWNPAAEQIFGWTADEMIGNSIRVLIPPDRQHEEDDILQRIRTGEMVPKFETERLHKSGRRIHVAVTVSPLRDPDGRIVGASKIAHDITETVEIRRRLVASEHQFRSLANSIPQLAWIAESDGTVFWYNDRWFDYTGTTLEQLRGSGWTALHHPDHLERVRSKLQHSWDTGEAWEDTFPLRGKDGEYRWFLSRAMPLRDDSGEVWRWFGTNTDITVQRQHEQQIQMLMGEINHRAKNMLAVVQAMVMRTADRSFAESLGARLQALSRNQDLLIKRNWSGTPIGELIESQLAAVNDLIGTRVLIEGERELLLSPVASETIGLAIHELTTNATKYGALSNADGTVRIACEIRHTVDGPKLDLIWHEQGGPPVGEPNRAGFGTVMIDRNPRSALGADVEISYPESGLRWCLNAPLDRLVATP | not failed
MYSMSMGERGEAPDGMSGVIRYESLLAARTMAQRQPKKSAGCADSVESFRNPKPKPRFDKDVFCKTSAIRRLRSDFLHGDGSRGTGRHRAVARGPDGVRLHPAGRQRPNLPVASSASRTRHDQGSGRMSVVSAIIGTAERVPLPDVVIRAAIQRLCSRTATRISALGADDEAAFAGRMMLRPIAEDVDAANAGHDEAPASFIAQALGPNRKYSSCFYTTDATTLREAEEEALRQTVAHAGLADGQTILELGCGWGSLSLWTARQFPHAKVTAVSNSQGQRAYVEEQARLRGLLNLRVVTADMNVFAPEGQFDRIVSVEMFEHVMNWRKLMTRLRSWLAPEGRLFMHIVTHRSGSHLFDRANREDWIAQHVFTGGLMASHHLVRQFDDIFTVEKEWCWSGTHYQRTANDWLANFDAHRDAIEASLRNVHGDETALWMRRWRWFFLATSGLFGYAGGTEWGVSHYRMKAADEGVS | failed
MKYLAAYLLLVQGGNAAPSAADIKAVVESVGAEVDEARINELLSSLEGKGSLEEIIAEGQKKFATVPTGGASSAAAGAAGAAAGGDAAEEEKEEEAKEESDDDMGFGLFD | failed
MGHHHHHHSHMNSTECTLILTEGDSAKTLAVSGLGVVGRDKYGVFPLRGKILNVREASHKQIMENAEINNIIKIVGLQYKKNYEDEDSLKTLRYGKIMIMTDQDQDGSHIKGLLINFIHHNWPSLLRHRFLEEFITPIVKVSKNKQEMAFYSLPEFEEWKSSTPNHKKWKVKYYKGLGTSTSKEAKEYFADMKRHRIQFKYSGPEDDAAISLAFSKKQIDDRKEWLTNFMEDR | failed
MRMAATAPAFPELEGRHPCFSTTAEGHARAARLHLPVSPGCNIDCAFCIRDFNRRDQRPGVATRLLTPEQAVAIVARALELCPSINVVGIAGPGDPLATPHALQTFALVRERWPELVLCLSTNGLMLPDRIDEIAGLGISTLTVTVNAVDPQIQAQVTPKIAWQRKRLNGVVAGERLIANQLEGIARAAAHGLTVKVNTVLIPTVNDHHIETIAERVAAAGANLINIIPLIPQHGFAHLKPPGMLMRYAARTAAEKYLRVFTHCQRCRADACGIPGVSDYAQQLYGDDIVAEPTFSHG | failed
SSEDLAKQLASYKAQLQQVEAALSGNGENEDLLKLKKDLQEVIELTKDLLSTQPSETLASSDSFASTQPTHSWKVGDKCMAVWSEDGQCYEAEIEEIDEENGTAAITFAGYGNAEVTPLLNLKPVEEGRKAKEDSGNKPMSKKEMIAQQREYKKKKALKKAQRIKELEQEREDQKVKWQQFNNRAYSKNKKGQVKRSIFASPESVTGKVGVGTCGIADKPMTQYQDTSKYNVRHLMPQ | failed
MVRKQKRARLIYNPTSGQEIMKKNVAEVLDILESFGYETSAFQTTPRADSAKNEAARASQAGFDLVIAAGGDGTINEVVSGIAPLKRRPKVAIIPTGTTNDFARALKIPRGNPVEATKLIGKNQTIHMDIGRAYNDKYFINIAAAGSLTELTYSVPSQLKTMFGYLAYLVKGAELLPRVRNVPVKVFYDHGVFEGEASMIFVALTNSVGGFETIAPDAKLDDGKFTLILVKTANLFELTDLIRLVLTGGRHINHKKIEYIKTSYLKIIPQGNPPKRMMINLDGEYGGDAPIELRNLKNHIEFFANTDEISDDAITLDTEELVLEAIAQKFAREAESLDEMDKTKEQD | not failed
PPPAPIPDLKVFEREGVQLNLSFIRPPENPALLLITITATNFSEGDVTHFICQAAVPKSLQLQLQAPSGNTVPARGGLPITQLFRILNPNKAPLRLKLRLTYDHFHQSVQEIFEVNNLPVESWQ | not failed
MIIRNGCLEDLQQVISIEQINFSEAEAASKKAMQERLTIMTDTFLVAEINGRLAGYIEGPVIKGRYLTDDLFHKVSEFPVRVGGFIGITSLSIHPDFKGQGIGTALLAAMKDLVVSQERDGISLTCHDDLISFYEMNGFKDEGESDSKHGGSLWYNMIWNNPTRSIC | failed
MVAQNSVVVIGASGFGRESLDVLEAMKEAGHSLEIIGVVDDNPAAINLQRLAERKIEYLGTLKEWIEGSPKSCKYVLAIGNPTIRHKLSALLDKSGFDAFTAVHPSAVIGSQVVFGSGAVVCSGAVISTNVRLGVHVHINPNVTIGHDSILEDYVSINPAATISGEVLIMEETLIGAAATVLQGLTIGNRSLVGASSCVTKDISAGKVVKGIPARLEHHHHHH | not failed
MVQAHGGRSRAQPLTLSLGAAMTQPPPEKTPAKKHVRLQERRGSNVALMLDVRSLGAVEPICSVNTPREVTLHFLRTAGHPLTRWALQRQPPSPKQLEEEFLKIPSNFVSPEDLDIPGHASKDRYKTILPNPQSRVCLGRAQSQEDGDYINANYIRGYDGKEKVYIATQGPMPNTVSDFWEMVWQEEVSLIVMLTQLREGKEKCVHYWPTEEETYGPFQIRIQDMKECPEYTVRQLTIQYQEERRSVKHILFSAWPDHQTPESAGPLLRLVAEVEESPETAAHPGPIVVHCSAGIGRTGCFIATRIGCQQLKARGEVDILGIVCQLRLDRGGMIQTAEQYQFLHHTLALYAGQLPEEPSP | failed
MESMVAPGEVLMSQAIQPAHADSRGELSAGQLLKWMDTTACLAAEKHAGISCVTASMDDILFEDTARIGQIITIRAKVTRAFSTSMEISIKVIVQDKFTGIQKLLCVAFSTFVAKPVGKEKVHLKPVLLQTEQEQVEHNLASERRKVRLQHENTFNNIMKESSRFSDSICNEEEGTATTMGTSVQSIELVLPPHANHHGNTFGGQIMAWMETVATISASRLCHGHPFLKSVDMFKFRGPSTVGDRLVFSAIVNNTFQNSVEVGVRVEAFDCQEWAEGQGRHINSAFLIYNAVDDQEKLITFPRIQPISKDDFRRYQGAIARRRIRLGRKYVISHKKEVPLSAQWDISKKGSLSNTNVEALKNLASKSGWEITTTLEKIKIYTLEEQDAISVKVEKLVGSPAHIAYHLLSDLTKRPLWDPHYISCEVIDQVSEDDQIYYITCSVVNGDKPKDFVVLVSRRKPLKDNNTYTVALRSVVLPSVPSSPQYIRSEVICAGFLIQAVDSNSCTVTYLNQMSDSILPYFAGNIGGWSKSIEEAAASCIKFIENATPDGLKSVL | failed
MGHRHQFGHGRRGGALMERALIIGASGWGREVLEQMRGDAGHGKDWLIGGFLDSRTNILDSYGVDTPIIGDPMNYLPQPDDVFVCAMGNPYDRHRYALPILQKGGRFIPICTDVRLGRRVHFGQGCFFGLMVHSGPDVRIGDFVTIHAQSMLGHDVRIGDYVHVGAMAFMGGGVQLGDFVTVHPRATLMPGVKVGDGAVIGAGAVVLKDVPAGATVFGNPAKIVFNKNIPTD | failed
MLLHNGPMKLAEALIERADLQKRAAQLEERLVQNMQVQEGEVPAEDPRELLNELLTVSSALEVLLPRIHRANLSATLPSGQTLTDALTRRDLLDARLKALRRAATAAAERQTRYSNSELRMVAVIPPSELQKLADVMAKERRELEVQIQQANWQTDLPGSGALEHHHHHH | not failed
MYANKVKKIAAVHDLSGMGRVSLTVVIPILSSMGFQVCPLPTAVLSNHTQYPGFSFLDLTDEMPKIIAEWKKLEVQFDAIYTGYLGSPRQIQIVSDFIKDFRQPDSLIVADPVLGDNGRLYTNFDMEMVKEMRHLITKADVITPNLTELFYLLDEPYKADSTDEELKEYLRLLSDKGPQVVIITSVPVHDEPHKTSVYAYNRQGNRYWKVTCPYLPAHYPGTGDTFTSVITGSLMQGDSLPMALDRATQFILQGIRATFGYEYDNREGILLEKVLHNLDMPIQMASYELI | not failed
